The record followed here is patent US20200002710A1, “SYSTEMS AND METHODS FOR CONTROL OF GENE EXPRESSION” (TRUSTEES OF BOSTON UNIVERSITY, published 2020).

Where a chain is given by its changes, count along the chain named.

T1: 43-8 (ZF1) low affinity synTF (artificial, R-to-A backbone (low affinity allele, already in ref))
T1 chain: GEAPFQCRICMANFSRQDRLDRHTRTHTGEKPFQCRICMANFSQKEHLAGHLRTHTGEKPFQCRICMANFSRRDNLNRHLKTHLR

T2: 42-10 (ZF2) high affinity synTF (artificial)
T2 chain: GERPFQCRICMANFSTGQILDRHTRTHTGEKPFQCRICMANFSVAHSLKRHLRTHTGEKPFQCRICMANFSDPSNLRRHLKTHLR

T3: 43-8 (ZF1) high affinity synTF (artificial)
T3 chain: T1 chain with A3R

T4: 42-10 (ZF2) low affinity synTF (artificial, R-to-A backbone (low affinity allele, already in ref))
T4 chain: T2 chain with R3A

T5: MBP-syn. (MBP fusion of the syntrophin PDZ domain) (Oryctolagus cuniculus (Rabbit), UniProt Q28626 83-177)
T5 construct: Used as an MBP fusion in the PDZ-ligand anisotropy assays; also called MBP-PDZ; pCB378
T5 sequence: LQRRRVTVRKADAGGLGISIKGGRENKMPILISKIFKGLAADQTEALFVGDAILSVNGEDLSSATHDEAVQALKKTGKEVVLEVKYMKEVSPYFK

T6: MBP-erb. (MBP fusion of the erbin PDZ domain) (Mus musculus (Mouse), UniProt Q80TH2 1304-1387, limits assumed)
T6 construct: also called MBP-PDZ; pCB425
T6 chain: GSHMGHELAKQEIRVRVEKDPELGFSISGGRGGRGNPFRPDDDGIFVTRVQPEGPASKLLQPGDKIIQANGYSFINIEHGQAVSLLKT

T7: MBP-syn. (MBP fusion of the syntrophin PDZ domain) (UniProt Q28626 83-177)
T7 chain: T5 sequence

B1: 43-8 nc=2 probe (dsDNA)
DNA 1: GAATTCGTCCTCACTCTTCGGTCCTCACTCTGGATCC
DNA 2: GGATCCAGAGTGAGGACCGAAGAGTGAGGACGAATTC
B2: 42-10 DBM2 (dsDNA)
DNA 1: TGACGCTGCTT
DNA 2: AAGCAGCGTCA
B3: 43-8 DBM3 (dsDNA)
DNA 1: ATAGTGAGGAC
DNA 2: GTCCTCACTAT
B4: 43-8 DBM2 (dsDNA)
DNA 1: ACAGTGAGGAC
DNA 2: GTCCTCACTGT
B5: 42-10 DBM3 (dsDNA)
DNA 1: AGACGGTGCTC
DNA 2: GAGCACCGTCT
B6: 42-10 DBM5 (dsDNA)
DNA 1: AGACGCTACTC
DNA 2: GAGTAGCGTCT
B7: 42-10 DBM4 (dsDNA)
DNA 1: ACACGCTGCTC
DNA 2: GAGCAGCGTGT
B8: 42-10 DBM6 (dsDNA)
DNA 1: AGACGCTGCTA
DNA 2: TAGCAGCGTCT
B9: 42-10 DBM7 (dsDNA)
DNA 1: AGACTCTGCTC
DNA 2: GAGCAGAGTCT
B10: 43-8 synTF with appended erbin ligand E1 (WLVTWV) (other, not shown: large carriers)
chain: GEAPFQCRICMANFSRQDRLDRHTRTHTGEKPFQCRICMANFSQKEHLAGHLRTHTGEKPFQCRICMANFSRRDNLNRHLKTHLRGSGSGWLVTWV
B11: 43-8 synTF with appended erbin ligand E2 (WLKTWV) (other, not shown: large carriers)
chain: B10 chain with V93K
B12: MBP-43-8(low)-syn. lig. (S6) (other, not shown: large carriers)
chain: B10 chain with W91V, L92K, V93E, T94A, W95L
notes: also called VKEALV; pCB386
B13: MBP-43-8(low)-syn. lig. (S1) (other, not shown: large carriers)
chain: B10 chain with W91I, L92R, V93E, W95I, V96I
notes: also called IRETII; pCB380
B14: MBP-43-8(low)-syn. lig.(no bind) (other, not shown: large carriers; small tags and cut ends)
chain: B10 chain with W91V, L92K, V93E, T94A, W95A, V96A
notes: also called VKEAAA; nb
B15: MBP-43-8(low)-syn. lig. (S2) (other, not shown: large carriers)
chain: B10 chain with W91I, L92R, V93E, W95I, V96L
notes: also called IRETIL; pCB381
B16: MBP-43-8(low)-syn. lig. (S7) (other, not shown: large carriers)
chain: B10 chain with W91H, V93E, W95F, V96F
notes: also called HLETFF; pCB387
B17: MBP-43-8(low)-syn. lig. (S4) (other, not shown: large carriers)
chain: B10 chain with W91I, L92R, V93E, W95I
notes: also called IRETIV; pCB384
B18: MBP-43-8(low)-syn. lig. (S5) (other, not shown: large carriers)
chain: B10 chain with W91V, L92K, V93E, T94S, W95L
notes: also called VKESLV; pCB385
B19: 43-8 synTF with appended erbin ligand E3 (PVDSWV) (other, not shown: large carriers)
chain: B10 chain with W91P, L92V, V93D, T94S
B20: MBP-43-8(low)-syn. lig. (S3) (other, not shown: large carriers)
chain: B10 chain with W91I, L92R, V93W, W95I
notes: also called IRWTIV; pCB382

The subject of one data set is 43-8 low affinity synTF + 3x syntrophin PDZ clamp (artificial). The data set can be described thus: FP. The note with it: nH 2.55; synTF titration with 3-PDZ clamp.
“GAATTCGTCCTCACTCTTCGGTCCTCACTCTTCGGTCCTCACTCTGGATCC (double strand) [43-8 nc=3 probe]”: the EC50 (as a rule, the concentration that produces a half-maximal response) was determined as 5.1 nM.

The next data set concerns the target T1, 43-8 (ZF1) low affinity synTF. Nature of the data set: FP; no clamp; nH 1.07. The note with it: tags: N-terminal MBP; C-terminal GS linker + syntrophin ligand S5 (VKESLV); label: fluorescein on bottom-strand thymidine. How it is done: All assays were conducted in 20 mM Tris, pH 7.5, 100 mM […], 50 μM ZnCl2 buffer at 25° C. Proteins, probes, and competitor oligos were added to a final volume of 300 μL. Probes were used at 10 nM in all experiments. For complex assembly experiments (FIG. 1C), indicated concentrations of MBP-ZF₄₃₋₈ harboring a VSKESLV* ligand (SEQ ID NO: 120) (see e.g., FIG. 5A-FIG. 5B, FIG. 7A-FIG. 7B) were titrated against 5 μM concentrations of clamp. Mixtures were allowed to equilibrate at 25° C. for 10 min in Costar black 96-well plates prior to reading. Fluorescence anisotropy (FA) measurements were made at 494 nm using a SpectraMax M5 (Molecular Devices) fluorescence plate reader. For all measurements, anisotropy (r) was calculated using the following equation, wherein I_{∥} and I_{⊥} are parallel and perpendicular fluorescence, respectively: […]
Consider B1, for which the EC50 was found to be 210 nM.

The target of another data set is T2, 42-10 (ZF2) high affinity synTF. The data set can be described thus: FP; fluorescence anisotropy competition; 20 mM Tris pH 7.5, 100 mM NaCl, 50 uM ZnCl2, 25 C. The conditions noted are these: tags: N-terminal MBP; C-terminal GS linker + syntrophin ligand S5 (VKESLV). The procedure: (§1) Sequences for both sets of DBM affinity variants are listed on the right. Residues mutated from the WT sequence are indicated by bold type.
(§2) All assays were conducted in 20 mM Tris, pH 7.5, 100 mM […], 50 μM ZnCl2 buffer at 25° C. Proteins, probes, and competitor oligos were added to a final volume of 300 μL. Probes were used at 10 nM in all experiments. For complex assembly experiments (FIG. 1C), indicated concentrations of MBP-ZF₄₃₋₈ harboring a VSKESLV* ligand (SEQ ID NO: 120) (see e.g., FIG. 5A-FIG. 5B, FIG. 7A-FIG. 7B) were titrated against 5 μM concentrations of clamp. Mixtures were allowed to equilibrate at 25° C. for 10 min in Costar black 96-well plates prior to reading. Fluorescence anisotropy (FA) measurements were made at 494 nm using a SpectraMax M5 (Molecular Devices) fluorescence plate reader. For all measurements, anisotropy (r) was calculated using the following equation, wherein I_{∥} and I_{⊥} are parallel and perpendicular fluorescence, respectively:
TF-DBM binding constants were measured in vitro by fluorescence anisotropy (FA). Recombinant proteins were purified and DBM oligos prepared as described herein. […] Affinities for the interaction were measured as a function of the increase in fluorescence anisotropy resulting from binding of the fusion to a fluorescently labeled (FITC) oligo probe (data not shown). Oligo probe binding to ZF affinity variants was measured. […]
(Fluorescence polarisation rises when a labelled molecule tumbles more slowly, as on binding a larger partner.)
B2: the Kd (usually the free concentration of one partner at which half of the binding sites on the other are occupied at equilibrium, for simple one-to-one binding) amounted to 0.94 nM.

A further data set deals with T3, 43-8 (ZF1) high affinity synTF. Nature of the data set: FP; fluorescence anisotropy competition; Zn2+, 25 C. The note with it: tags: N-terminal MBP; C-terminal GS linker + syntrophin ligand S5 (VKESLV). How it is done: as §1, §2
(§3) TF-DBM binding constants were measured in vitro by fluorescence anisotropy (FA). Recombinant proteins were purified and DBM oligos prepared as described herein. […] Affinities for the interaction were measured as a function of the increase in fluorescence anisotropy resulting from binding of the fusion to a fluorescently labeled (FITC) oligo probe (data not shown). Oligo probe binding to ZF affinity variants was measured. MBP-ZF was titrated against 10 nM oligo probe. […] Kd values were extracted by fitting data to a quadratic binding equation (data not shown). Competition binding experiments were performed to measure binding constants for DBM affinity variants.
Regarding B3, the Kd was 42 nM.
As for B4, the Kd was found to be 30 nM.

A further data set concerns the target T1, 43-8 (ZF1) low affinity synTF. The description is as above. The note with it: tags: N-terminal MBP; C-terminal GS linker + syntrophin ligand S5 (VKESLV). The procedure:
as §1, §2, §3
For B3, the Kd was 224 nM.
Same read-out and setting: to B4 belongs 143 nM.

The target of the next data set is T4, 42-10 (ZF2) low affinity synTF. The description is as above. The conditions noted are these: tags: N-terminal MBP; C-terminal GS linker + syntrophin ligand S5 (VKESLV). How it is done: as §1, §2, §3
Turning to B5, the Kd worked out at 32 nM.
On the same count and under the same terms, to B6 belongs 95 nM; to B7, 67 nM.
Consider B8, for which the Kd was 218 nM.
The same measure, in the same setting: in the case of B9 it was 415 nM.
Still for that read-out and setting: in the case of B2 it was 5.2 nM.

In another data set the target is T5, MBP-syn. (MBP fusion of the syntrophin …). The data set can be described thus: fluorescence anisotropy competition (nb indicates no binding).
Details: not given
The procedure: (§4) Probe concentration was assessed by measuring Abs490. Competitor peptides were purified as MBP-ZF43-8 fusions (see e.g., FIG. 5A-FIG. 5B, FIG. 7A-FIG. 7B).
as §2
(§5) PDZ-ligand binding constants were measured in vitro by fluorescence anisotropy. Recombinant proteins were purified as described herein. […] Peptide probe binding to PDZ domain was measured. […] Kₐ values were extracted by fitting data to a quadratic binding equation (data not shown). Competition binding experiments were conducted to measure binding constants for ligand affinity variants. […] accompanying displacement of the probe by the competitor was measured, and competitor ligand Kd values were extracted by fitting data (converted to fraction probe bound) to a cubic equation describing competitive binding (see e.g., FIG. 7A).
With B10, the binding result is “no binding”.
On the same count and under the same terms, to B11 belongs “no binding”.

In the next data set the target is T6, MBP-erb. (MBP fusion of the erbin PDZ …). The data set is described as above.
Details: not given
The procedure:
as §4, §2, §5
Regarding B12, the binding result is “no binding”.
Still for that read-out and setting: in the case of B13 it was “no binding”.
For the molecule B14, the binding result is listed as “no binding”.
B15: the binding result is recorded as “no binding”.
The same measure, in the same setting: to B16 belongs “no binding”.

The next data set addresses T7, MBP-syn. (MBP fusion of the syntrophin …). Nature of the data set: thermodynamic model fit; model-fitted.
Details: not given
B17 had a dissociation constant (Kd) of 400 nM.
On the same count and under the same terms, in the case of B18 it was 2050 nM.

A further data set has the same target. The data set can be described thus: fluorescence anisotropy competition; experimentally-measured.
Details: not given
B12: the Kd worked out at 20300 nM.

The target in a further data set is T6, MBP-erb. (MBP fusion of the erbin PDZ …). The data set can be described thus: fluorescence anisotropy competition; 43-8 synTF-ligand fusion titrated against MBP-erbin PDZ and FITC peptide probe.
Details: not given
How it is done: as §4, §2, §5
Molecule B17 showed a Kd of 3460 nM.
The same measure, in the same setting: in the case of B19 it was 420 nM; in that of B10, 100 nM.
In turn, B18 returned a Kd of 5710 nM.
On the same count and under the same terms, in the case of B20 it was 1730 nM.
Still for that read-out and setting: to B11 belongs 330 nM.

The target in the next data set is T5, MBP-syn. (MBP fusion of the syntrophin …). Nature of the data set: fluorescence anisotropy competition; 43-8 synTF-ligand fusion titrated against MBP-syntrophin PDZ and FITC-VKESLV probe.
Details: not given
The procedure:
as §4, §2, §5
Molecule B17 displayed a Kd of 880 nM.
On the same count and under the same terms, in the case of B12 it was 27300 nM; in that of B13, 62 nM; in that of B19, 1570 nM.
Same read-out and setting: to B18 belongs 1970 nM; to B15, 180 nM; to B16, 43200 nM.
On the same count and under the same terms, to B20 belongs 490 nM.
